Measurements from US20090208938A1 (CENTRE NATIONAL DE LA RECHERCHE SCIENTIFIQUE, published 2009).

Biological target: T1, MCM2-7 protein complex (Xenopus egg extracts) (Xenopus, UniProt P55861 1-886; P49739 1-807; P30664 1-863; P55862 1-735; Q5FWY4 1-821; Q91876 …)
T1 construct: Endogenous complex of the six proteins MCM2 to MCM7; also called MCM2-7 proteins; MCM2-7 complex
Test: co-immunoprecipitation with MCM3 antibody from S phase egg extracts, western blot with MCM8 antibody

B1: Xenopus MCM8 protein (enzyme)
chain: MSQGWRGGSGGWRGGGGGGGNPYAGAWRGRPWRGRGQGGTWSRNNGRDPVCFAPPKPQLTQTTLDKYIPYKGWKLYFSEAYSDNSPFLEKVRAFEKFFKKQIELYDKDEIERKGSILVDYKELLQDEDLSASIPLSSELKDMPEKVLECMGLAIHQVLTKDLETHAADLQQQEGLRTEEAPIVNVPFIHARVFNYDTLTSLKNLRASLYGKYVALRGTVVRVGNIKPLCTKMAFSCNMCGDIQCFPLPDGKYTVPTKCPVPECRGRSFTANRSSPLTVTVDWQTIKVQELMSDDQREAGRIPRTVECELIQDLVDSCVPGDMITVTGIVKVSNTRDGGFKNKNNKCMFLLYIEANSVSNSKGQKGKSTEDSGNHGASMDFSLKDLYAIQEIQSQENLFQLIVNSLCPTIYGHELVKAGLSLALFGGCQKYADDKNRIPIRGDPHILVVGDPGLGKSQMLQAVCNVAPRGVYVCGNTTTTSGLTVTLSRDTTTGDFGLEAGALVLGDQGICGIDEFDKMGNQHQALLEAMEQQSISLAKAGIVCSLPARTSIIAAANPVGGHYNKGKTVSENLKMGSALLSRFDLVFILVDTPNEDHDHLLSEHVMAMRSGAKEIQSVDITRINTQNSNTSILEVPSERPLGERLKLRTGEHFDALPHQLLRKFVGYARQYVHPSLSPDAAQILQDFYLELRKQNQGIDSTPITTRQLESLIRLTEARARLELREKATKEDAEEVVQIMKYSLLGTFSDEFGKLDFQRSQHGSGMSNRSKAKKFVSALNRVAEQTYNNLFEFQQLRQIARELQIQVIDFEAFIGSLNDQGYLLKKGPRVFQLQTM
notes: Full-length protein: translated in vitro in rabbit reticulocytes, or the endogenous protein of Xenopus egg extracts; also called 90 kDa polypeptide
B1: no binding.
